From patent publication US5753229

Key:
[1] = target: Ag 2.15 (FC-2.15 antigen of breast tumor cells; membrane bands of 160 kDa, 130 kDa and 115 kDa) (human); assay: cell ELISA on MCF-7 cells after periodate oxidation, against untreated cells
[2] = target: Ag 2.15 (FC-2.15 antigen of breast tumor cells; membrane bands of 160 kDa, 130 kDa and 115 kDa) (human)

B1: monoclonal antibody FC-2.15 (antibody, V domains shown)
VH: VKLQESGGGLVQPGGSLKLSCAASGFDFSRYWMSYVRQAPGKGLEWIGEIDPDSSTINYTPSLKDKFIISRDNAKNTLYLQMSKVRSEDTALYYCARETGTPFDYWGQGTTLTVSS
VL: DIVMTQSPASLSVATGEKVTIRCITSTDIDDDMNWYEQKPGEPPKLLISEGNTLRPGVPSPFSSSGYGTDFVFTIENTHSEDVADYYCLQSDNMPFTFGSGTKLEIKP
[1]
  % inhibition of reactivity by 10 mM periodate: 47.1%
[2]
  Residual clonogenic ability (%) after MAb and rabbit complement: 11.7%
